In series [1] the test system is Max* in heterodimer;ΔMax* in heterodimer V99G;R100E;A101S;L102E;E103S (;), P61244+P61244-3. Kind of series: fluorescence anisotropy. Particulars: 37 C, 1:1 mixture, apparent 1/KBinding, internal fluorescein-dT (iFluorT) at position 4, FA: 15 nM dsDNA, 50 mM Tris, 50 mM KCl, pH 7.5, 37 C, EMSA: 250 nM DNA, 20 mM Tris-HCl, 75 mM KCl, 2.5 mM TCEP, 25 ug/mL BSA, 5% glycerol, pH 8.0, room temp …. For orientation: In fluorescence polarisation assays a small probe gives low polarisation when free and higher when bound to something large.
Max* in heterodimer;ΔMax* in heterodimer V99G;R100E;A101S;L102E;E103S (;), P61244+P61244-3, sequence (P61244 whole entry V99G/R100E/A101S/L102E/E103S, looked up, one chain of several): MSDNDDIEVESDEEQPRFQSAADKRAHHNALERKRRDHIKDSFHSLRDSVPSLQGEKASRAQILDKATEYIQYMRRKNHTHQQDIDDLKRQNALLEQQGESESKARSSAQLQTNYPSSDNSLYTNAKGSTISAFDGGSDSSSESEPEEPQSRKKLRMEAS

The test system of series [2] is ΔMax* in heterodimer;c-Myc* in heterodimer V99G;R100E;A101S;L102E;E103S (;), P61244-3+P01106. Put plainly: fluorescence anisotropy. Particulars: 37 C, 1:1 mixture, apparent 1/KBinding, internal fluorescein-dT (iFluorT) at position 4, FA: 15 nM dsDNA, 50 mM Tris, 50 mM KCl, pH 7.5, 37 C, EMSA: 250 nM DNA, 20 mM Tris-HCl, 75 mM KCl, 2.5 mM TCEP, 25 ug/mL BSA, 5% glycerol, pH 8.0, room temp ….
ΔMax* in heterodimer;c-Myc* in heterodimer V99G;R100E;A101S;L102E;E103S (;), P61244-3+P01106, sequence (P01106 whole entry, looked up, chain 1 of 2): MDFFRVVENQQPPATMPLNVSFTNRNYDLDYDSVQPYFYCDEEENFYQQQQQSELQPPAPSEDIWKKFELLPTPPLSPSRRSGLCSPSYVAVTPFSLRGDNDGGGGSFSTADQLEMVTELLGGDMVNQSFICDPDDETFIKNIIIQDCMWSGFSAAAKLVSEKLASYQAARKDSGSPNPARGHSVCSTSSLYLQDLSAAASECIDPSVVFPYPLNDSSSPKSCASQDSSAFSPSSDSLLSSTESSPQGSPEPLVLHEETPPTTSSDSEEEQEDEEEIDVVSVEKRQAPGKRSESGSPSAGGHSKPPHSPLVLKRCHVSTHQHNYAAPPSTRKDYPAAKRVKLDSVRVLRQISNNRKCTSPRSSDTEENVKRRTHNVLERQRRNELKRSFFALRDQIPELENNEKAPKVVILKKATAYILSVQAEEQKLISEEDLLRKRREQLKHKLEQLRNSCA
ΔMax* in heterodimer;c-Myc* in heterodimer V99G;R100E;A101S;L102E;E103S (;), P61244-3+P01106, sequence (P61244 whole entry, looked up, stated change not applied, chain 2 of 2): as the sequence (P61244 whole entry V99G/R100E/A101S/L102E/E103S, looked up, one chain of several) above, with G99V, E100R, S101A, E102L, S103E counted along it

For series [3], the system named is ΔMax* (b-HLH-LZ of ΔMax splice isoform) V99G;R100E;A101S;L102E;E103S, P61244-3. Kind of series: fluorescence anisotropy. Particulars: 37 C; apparent 1/KBinding of dimer; 1/KDimer 220 ± 20 nM; internal fluorescein-dT (iFluorT) at position 4; FA: 15 nM dsDNA, 50 mM Tris, 50 mM KCl, pH 7.5, 37 C; EMSA: 250 nM DNA, 20 mM Tris-HCl, 75 mM KCl, 2.5 mM TCEP, 25 ug/mL BSA, 5% glycerol, pH 8.0, room temp ….
ΔMax* (b-HLH-LZ of ΔMax splice isoform) V99G;R100E;A101S;L102E;E103S, P61244-3, sequence (P61244 whole entry V99G/R100E/A101S/L102E/E103S, looked up, canonical isoform): as the sequence (P61244 whole entry V99G/R100E/A101S/L102E/E103S, looked up, one chain of several) above

Series [4] addresses T1, Max* (b-HLH-LZ of WT Max) (UniProt P61244 22-103). Put plainly: CD thermal denaturation; complex T° 43.7 C; less stable than E-box; FA: 15 nM dsDNA, 50 mM Tris, 50 mM KCl, pH 7.5, 37 C; EMSA: 250 nM DNA, 20 mM Tris-HCl, 75 mM KCl, 2.5 mM TCEP, 25 ug/mL BSA, 5% glycerol, pH 8.0, room temp; CD: 25 mM KH2PO4, 25 mM Na2HPO4, 50 mM KCl, 1 mM TCEP, pH 6.8. The conditions noted are these: protein: recombinant; tags: C-terminal GSGC stated for the deltaMax* construct only; not restated for Max*; chain copies: 2; blunt, self-complementary palindrome.

In series [5] the target is T1, Max* (b-HLH-LZ of WT Max). Put plainly: fluorescence anisotropy; 37 C; apparent 1/KBinding of dimer; 1/KDimer 55 ± 7 nM; FA: 15 nM dsDNA, 50 mM Tris, 50 mM KCl, pH 7.5, 37 C; EMSA: 250 nM DNA, 20 mM Tris-HCl, 75 mM KCl, 2.5 mM TCEP, 25 ug/mL BSA, 5% glycerol, pH 8.0, room temp; CD: 25 mM KH2PO4, 25 mM Na2HPO4, 50 mM KCl, 1 mM TCEP, pH 6.8. The conditions noted are these: protein: recombinant; tags: C-terminal GSGC stated for the deltaMax* construct only; not restated for Max*; chain copies: 2; label: fluorescein; blunt, self-complementary palindrome.

The target of series [6] is T2, c-Myc* (b-HLH-LZ of c-Myc) (UniProt P01106 368-451). Put plainly: fluorescence anisotropy; 37 C; apparent 1/KBinding of dimer; 1/KDimer 8.5 ± 3 nM; FA: 15 nM dsDNA, 50 mM Tris, 50 mM KCl, pH 7.5, 37 C; EMSA: 250 nM DNA, 20 mM Tris-HCl, 75 mM KCl, 2.5 mM TCEP, 25 ug/mL BSA, 5% glycerol, pH 8.0, room temp; CD: 25 mM KH2PO4, 25 mM Na2HPO4, 50 mM KCl, 1 mM TCEP, pH 6.8. The conditions noted are these: protein: recombinant; chain copies: 2; label: fluorescein; blunt, self-complementary palindrome.
T2 sequence (P01106 368-451): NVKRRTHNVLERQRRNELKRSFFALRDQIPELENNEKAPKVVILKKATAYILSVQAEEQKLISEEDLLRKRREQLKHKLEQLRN

Series [7] has as its target T1, Max* (b-HLH-LZ of WT Max). Kind of series: CD thermal denaturation; complex T° 56.1 C; FA: 15 nM dsDNA, 50 mM Tris, 50 mM KCl, pH 7.5, 37 C; EMSA: 250 nM DNA, 20 mM Tris-HCl, 75 mM KCl, 2.5 mM TCEP, 25 ug/mL BSA, 5% glycerol, pH 8.0, room temp; CD: 25 mM KH2PO4, 25 mM Na2HPO4, 50 mM KCl, 1 mM TCEP, pH 6.8. The conditions noted are these: protein: recombinant; tags: C-terminal GSGC stated for the deltaMax* construct only; not restated for Max*; chain copies: 2; blunt, self-complementary palindrome. (In general: Mobility shift assays separate free from complexed probe on a gel.)

In series [8] the target is T2, c-Myc* (b-HLH-LZ of c-Myc). Put plainly: CD thermal denaturation; stable complex; FA: 15 nM dsDNA, 50 mM Tris, 50 mM KCl, pH 7.5, 37 C; EMSA: 250 nM DNA, 20 mM Tris-HCl, 75 mM KCl, 2.5 mM TCEP, 25 ug/mL BSA, 5% glycerol, pH 8.0, room temp; CD: 25 mM KH2PO4, 25 mM Na2HPO4, 50 mM KCl, 1 mM TCEP, pH 6.8. The conditions noted are these: protein: recombinant; chain copies: 2; blunt, self-complementary palindrome.

Series [9] concerns the target T2, c-Myc* (b-HLH-LZ of c-Myc). Kind of series: fluorescence anisotropy; 37 C; apparent 1/KBinding of dimer; 1/KDimer 0.48 ± 0.5 nM; FA: 15 nM dsDNA, 50 mM Tris, 50 mM KCl, pH 7.5, 37 C; EMSA: 250 nM DNA, 20 mM Tris-HCl, 75 mM KCl, 2.5 mM TCEP, 25 ug/mL BSA, 5% glycerol, pH 8.0, room temp; CD: 25 mM KH2PO4, 25 mM Na2HPO4, 50 mM KCl, 1 mM TCEP, pH 6.8. The conditions noted are these: protein: recombinant; chain copies: 2; label: fluorescein; blunt, self-complementary palindrome.

For series [10], the target named is T1, Max* (b-HLH-LZ of WT Max). Put plainly: fluorescence anisotropy; 37 C; apparent 1/KBinding of dimer; 1/KDimer 8.6 ± 1.2 nM; FA: 15 nM dsDNA, 50 mM Tris, 50 mM KCl, pH 7.5, 37 C; EMSA: 250 nM DNA, 20 mM Tris-HCl, 75 mM KCl, 2.5 mM TCEP, 25 ug/mL BSA, 5% glycerol, pH 8.0, room temp; CD: 25 mM KH2PO4, 25 mM Na2HPO4, 50 mM KCl, 1 mM TCEP, pH 6.8. The conditions noted are these: protein: recombinant; tags: C-terminal GSGC stated for the deltaMax* construct only; not restated for Max*; chain copies: 2; label: fluorescein; blunt, self-complementary palindrome.

Series [11] deals with Max* in heterodimer;c-Myc* in heterodimer (;, UniProt P61244;P01106 22-103;368-451, |). Put plainly: EMSA; room temperature; Max*/Max* complex also seen at 2:1 excess of c-Myc*; FA: 15 nM dsDNA, 50 mM Tris, 50 mM KCl, pH 7.5, 37 C; EMSA: 250 nM DNA, 20 mM Tris-HCl, 75 mM KCl, 2.5 mM TCEP, 25 ug/mL BSA, 5% glycerol, pH 8.0, room temp; CD: 25 mM KH2PO4, 25 mM Na2HPO4, 50 mM KCl, 1 mM TCEP, pH 6.8. Particulars: protein: recombinant;recombinant; tags: ;; copies: 1;1; label: fluorescein; blunt, self-complementary palindrome.
Max* in heterodimer;c-Myc* in heterodimer, sequence (P61244 22-103, chain 1 of 2): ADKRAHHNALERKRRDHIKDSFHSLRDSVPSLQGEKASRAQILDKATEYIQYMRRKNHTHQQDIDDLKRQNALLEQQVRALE
Max* in heterodimer;c-Myc* in heterodimer, sequence (P01106 368-451, chain 2 of 2): as the sequence (P01106 368-451) above

T1 sequence (P61244 22-103): as the sequence (P61244 22-103, chain 1 of 2) above

As for “GAGTAGGGATCCCTACTC (double strand) [Non-specific DNA, fluorescein-labeled]”, the Kd amounted to 40 nM in series [1] (1/KDimer 460 ± 34 nM) and 11 nM in series [2] (1/KDimer 38 ± 5 nM).

Consider “GAGTAGCACGTGCTACTC (double strand) [E-box, fluorescein-labeled]”, for which the Kd in series [1] (1/KDimer 120 ± 10 nM) was 4 nM; in series [3], 80 nM; in [2] (1/KDimer 17 ± 2 nM), 10 nM.

B1: Non-specific DNA, unlabeled (CD) (dsDNA)
DNA 1: GAGTAGGGATCCCTACTC
DNA 2: GAGTAGGGATCCCTACTC
For the molecule B1, the binding result in series [4] is given as “binds”.

B2: Non-specific DNA, fluorescein-labeled (dsDNA)
DNA 1: GAGTAGGGATCCCTACTC
DNA 2: GAGTAGGGATCCCTACTC
modifications: internal fluorescein-dT (iFluorT) at position 4
Regarding B2, the Kd is 23 nM in [5] and 280 nM in series [6].

B3: E-box, unlabeled (CD) (dsDNA)
DNA 1: GAGTAGCACGTGCTACTC
DNA 2: GAGTAGCACGTGCTACTC
Take B3: the binding result in [7] and in [8] was “binds” each time.

B4: E-box, fluorescein-labeled (dsDNA)
DNA 1: GAGTAGCACGTGCTACTC
DNA 2: GAGTAGCACGTGCTACTC
modifications: internal fluorescein-dT (iFluorT) at position 4
With B4, the Kd worked out at 70 nM in series [9] and 4.8 nM in [10]. In [11], the binding result was “binds”.
